Experimental data reported in patent US20140196168A1 (SWETREE TECHNOLOGIES, published 2014).

Biological target: T1, Gal4-DNA Binding Domain fused to the Arabidopsis thaliana Med25 551-680 amino acid domain (bait, pGBKT7-Med25 … (Arabidopsis thaliana))
T1 construct: Expressed in yeast AH109 as a two-hybrid bait; also called G4-DBD-Med25; Med25 bait construct
Experiment: yeast two-hybrid with deletion derivatives

| Binder | binding result |
| --- | --- |
| DREB2A amino acids 169-254 (two-hybrid derivative, Gal4 activation domain fusion) (other, Arabidopsis thaliana, UniProt O82132 169-254, looked up, not shown: large carriers) CESKPFSGGVEPMYCLENGAEEMKRGVKADKHWLSEFEHNYWSDILKEKEKQKEQGIVETCQQQQQDSLSVADYGWPNDVDQSHLD | binds |
| ZFHD1 amino acids 1-132 (two-hybrid derivative, Gal4 activation domain fusion) (other, Arabidopsis thaliana, UniProt Q9SEZ1 1-132, looked up, not shown: large carriers) MDLSSKPQQQLLNSLPIAGELTVTGEMGVCYKECLKNHAANLGGHALDGCGEFMPSPTATSTDPSSLRCAACGCHRNFHRRDPSENLNFLTAPPISSPSGTESPPSRHVSSPVPCSYYTSAPPHHVILSLSS | binds |
